These results are taken from US20260193331A1 (THABOR THERAPEUTICS, published 2026).

Assay [1] concerns the target T1, human AGR2 WT (human, UniProt O95994 21-175).
T1 construct: also called hAGR2; recombinant human AGR2
T1 sequence: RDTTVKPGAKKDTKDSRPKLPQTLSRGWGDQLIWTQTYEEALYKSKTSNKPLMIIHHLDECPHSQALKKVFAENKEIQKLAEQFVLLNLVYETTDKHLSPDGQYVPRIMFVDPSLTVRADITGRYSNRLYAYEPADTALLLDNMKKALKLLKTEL
The experiment in a line: kinetics of Table 4, antibody immobilized, hAGR2 analyte.

In assay [2] the target is T2, BSA (UniProt P02769 25-607).
T2 construct: Negative control coating in the ELISA
The experiment in a line: ELISA on plate-coated antigen (1 µg/mL); antibody titrated 10 µg/mL to 0.15 ng/mL; anti-human IgG-HRP, OD 450 nm. For orientation: ELISA stands for enzyme-linked immunosorbent assay.

Assay [3] has as its target T3, human AGR3 (human, UniProt Q8TD06 22-166, limits assumed).
T3 construct: Closest family member of AGR2, used as a specificity control in the ELISA
T3 sequence (looked up): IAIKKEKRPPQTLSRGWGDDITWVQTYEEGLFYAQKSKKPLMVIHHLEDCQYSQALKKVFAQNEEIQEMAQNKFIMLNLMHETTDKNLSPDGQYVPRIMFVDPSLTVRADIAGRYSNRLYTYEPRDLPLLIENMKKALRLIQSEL
The assay is described as above.

In assay [4] the target is T1, human AGR2 WT. The experiment in a line: kinetics, antibody immobilized, hAGR2 soluble analyte; instrument not stated.
Assay [5] concerns the target T4, mouse AGR2 (mouse, UniProt O88312 21-175).
T4 construct: Whole entry as named
T4 sequence: T1 sequence with R1K, P7S, T13P, K44R, K50R, I54V, N74H, M109V, A135S, L141Y
The experiment in a line: ELISA, antigen coated at 1 µg/mL, antibody titrated.

Assay [6] has as its target T5, macaque AGR2 (macaque (rhesus monkey), UniProt O95994 21-175 (human entry), limits assumed).
T5 construct: Whole entry as named; also called rhesus monkey AGR2
T5 chain: T1 sequence with M109L
The assay is described as above.

In assay [7] the target is T6, dog AGR2 (dog, UniProt O95994 21-175 (human entry), limits assumed).
T6 construct: Whole entry as named
T6 chain: T1 sequence with R1K, T3I, P7S, R17A, M109I, A135S, T137I
The description is as above.

Assay [8] addresses T7, human AGR2 E60A (human, UniProt O95994 21-175).
T7 construct: Whole entry as named; also called monomeric AGR2
T7 chain: T1 sequence with E40A
The assay is described as above.

For assay [9], the target named is T1, human AGR2 WT. The description is as above.
The target in assay [10] is T2, BSA. The experiment in a line: ELISA on plate-coated antigen (1 µg/mL); antibody titrated 10 µg/mL to 0.15 ng/mL; anti-human IgG-HRP, OD 450 nm. This is another data set of the same source.
Assay [11] addresses T3, human AGR3. Described as above. The source holds these as a separate data set.
The target of assay [12] is T2, BSA. The assay is described as above. The source holds these as a separate data set.
Assay [13] concerns the target T3, human AGR3. Described as above. The source holds these as a separate data set.
Assay [14] deals with T2, BSA. The assay is described as above. This is another data set of the same source.
Assay [15] deals with T3, human AGR3. The assay is described as above. This is another data set of the same source.
Assay [16] concerns the target T2, BSA. Described as above. This is another data set of the same source.
Assay [17] addresses T3, human AGR3. The assay is described as above. The source holds these as a separate data set.
Assay [18] deals with T2, BSA. Described as above. The source holds these as a separate data set.
The target of assay [19] is T3, human AGR3. The assay is described as above. The source holds these as a separate data set.

Residue numbers refer to the chain shown, from its start. Like-named read-outs stand apart in the source and are kept apart here.

T2 sequence (P02769 25-607 limits assumed): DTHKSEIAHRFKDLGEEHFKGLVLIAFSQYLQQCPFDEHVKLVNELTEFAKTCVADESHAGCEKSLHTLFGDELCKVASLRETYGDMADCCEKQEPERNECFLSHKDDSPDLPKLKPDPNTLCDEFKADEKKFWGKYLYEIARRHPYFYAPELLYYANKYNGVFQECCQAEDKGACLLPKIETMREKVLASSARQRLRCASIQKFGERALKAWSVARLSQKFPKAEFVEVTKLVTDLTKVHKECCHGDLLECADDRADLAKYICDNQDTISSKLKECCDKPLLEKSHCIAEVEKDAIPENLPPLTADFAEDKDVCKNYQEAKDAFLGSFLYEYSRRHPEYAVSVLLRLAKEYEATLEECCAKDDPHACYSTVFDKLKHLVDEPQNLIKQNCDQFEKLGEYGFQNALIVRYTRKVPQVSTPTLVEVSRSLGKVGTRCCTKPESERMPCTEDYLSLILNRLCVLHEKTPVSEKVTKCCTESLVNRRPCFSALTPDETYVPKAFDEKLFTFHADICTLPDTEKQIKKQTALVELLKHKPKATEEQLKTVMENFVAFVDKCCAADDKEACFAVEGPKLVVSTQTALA

B1: TH-101 IgG1-LALA humanized monoclonal antibody (antibody, V domains shown)
VH: QVQLVQSGAEVKKPGASVKVSCKTSGYVFSRSWMNWVRQAPGQGLEWIGWIYPGDGDTNYNGKFKDRVTLTADKSTSTVYMELSSLRSEDTAVYFCARGGYDGSPWLSYWGQGTLVTVSS
VL: DIQMTQSPSSLSASVGDRVTITCKASQDINSYLSWFQQKPGKAPKTLIYRANRLVDGVPSRFSGSGSGQDFTLTISSLQPEDIATYYCLQYDEFPFTFGGGTKVEIKR
A word on the Kd: it is the free concentration of one partner at which half of the binding sites on the other are occupied at equilibrium, for simple one-to-one binding. A word on the koff: it is the first-order rate constant of dissociation. A lower koff goes with a long-lived complex. What is called kon is a measure of how fast the partners come together. A high value points to fast association. Usually EC50 stands for the concentration needed to bring the measured effect to its halfway point. Low readings indicate an effect from little substance, high ones a need for much substance. As for B1, the Kd in assay [1] is below 0.15 nM; in assay [4] it was 0.116 nM. For the same molecule, the binding result in [2] and in [3] was “no binding (tested: 10 µg/mL)” throughout. The same molecule displayed an off-rate (koff) in [4] of 3.52e-05 s⁻¹. The molecule also came in with an on-rate (kon) in assay [4] of 303000 M⁻¹ s⁻¹. Besides, the concentration giving a half-maximal response (EC50) in [5] was determined as 0.28 nM; in assay [6], 0.48 nM; in assay [7], 0.42 nM; in assay [8], 1.24 nM; in [9] it was 0.52 nM.

B2: TH-104 IgG1-LALA humanized monoclonal antibody (antibody, V domains shown)
VH: QVQLVQSGSELKKPGASVKVSCKTSGYVFSRSWMNWVRQAPGQGLEWIGWIYPGDGDTNYNGKFKDRFVLSADKSVSTVYLQISSLKAEDTAVYFCARGGYDGSPWLSYWGQGTLVTVSS
VL: B1 VL
For B2, the Kd was below 0.15 nM in [1] and 0.0278 nM in assay [4]. Besides, the binding result in assay [10] and in assay [11] was “no binding (tested: 10 µg/mL)” in each case. The molecule further yielded a koff in [4] of 8.23e-06 s⁻¹. This molecule also registered an association rate constant (kon) in assay [4] of 296000 M⁻¹ s⁻¹. For the same molecule, the EC50 in assay [5] was 0.3 nM; in [6], 0.44 nM; in [7], 0.48 nM; in [8], 0.92 nM; in [9], 0.527 nM.

B3: TH-115 IgG1-LALA humanized monoclonal antibody (antibody, V domains shown)
VH: QVQLLESGGGLVKPGGSLRLSCATSGYVFSRSWMNWIRQAPGQGLEWIGWIYPGDGDTNYNGKVKDRFTLSADKAKNSVYLQMNSLRAEDTAVYFCARGGYDGSPWLSYWGQGTLVTVSS
VL: EIVLTQSPDFQSVTPKEKVTITCKASQDINSYLSWFQQKPDQSPKTLIYRANRLVDGVPSRFSGSGSGQDFTLTINSLEAEDAATYYCLQYDEFPFTFGGGTKVEIKR
In the case of B3, the Kd in assay [1] was below 0.15 nM; in [4] it was 0.063 nM. The same molecule showed a koff in assay [4] of 1.94e-05 s⁻¹. Besides, the kon in assay [4] was 308000 M⁻¹ s⁻¹. The binding result in assay [12] and in [13] was “no binding (tested: 10 µg/mL)” in each case. The EC50 in assay [5] was 0.5 nM; in assay [6] it was 0.62 nM; in assay [7], 0.6 nM; in assay [8], 1.29 nM; in assay [9] it was 0.813 nM.

B4: TH-106 IgG1-LALA humanized monoclonal antibody (antibody)
heavy: not shown
light: EIVLTQSPATLSLSPGERATLSCKASQDINSYLSWFQQKPGQAPRTLIYRANRLVDGIPARFSGSGSGQDFTLTISSLEPEDFAVYYCLQYDEFPFTFGGGTKVEIKRTVAAPSVFIFPPSDEQLKSGTASVVCLLNNFYPREAKVQWKVDNALQSGNSQESVTEQDSKDSTYSLSSTLTLSKADYEKHKVYACEVTHQGLSSPVTKSFNRGEC
As for B4, the dissociation constant (Kd) is below 0.15 nM in [1] and 0.00327 nM in assay [4]. The binding result in [14] and in [15] was “no binding (tested: 10 µg/mL)” throughout. Besides, in assay [4], the koff was 1.07e-06 s⁻¹. This molecule showed an on-rate (kon) in [4] of 326000 M⁻¹ s⁻¹. Also, the half-maximal effective concentration (EC50) came out at 0.313 nM in [5]; 0.547 nM in assay [6]; 0.547 nM in [7]; 0.96 nM in assay [8]; 0.633 nM in assay [9].

B5: TH-106 IgG1 humanized monoclonal antibody (antibody)
heavy: not shown
light: B4 light
Take B5: the binding result in [16] and in [17] was “no binding (tested: 10 µg/mL)” each time. Besides, the 50% effective concentration (EC50) in assay [5] is 0.3 nM; in [6], 0.553 nM; in [7], 0.66 nM; in assay [8] it was 1.1 nM; in [9], 0.853 nM.

B6: TH-109 IgG1-LALA humanized monoclonal antibody (antibody, V domains shown)
VH: B2 VH
VL: EIVLTQSPATLSLSPGERATLSCKASQDINSYLSWFQQKPGQAPRTLIYRANRLVDGIPARFSGSGSGQDFTLTISSLEPEDFAVYYCLQYDEFPFTFGGGTKVEIKR
Turning to B6, the Kd in assay [1] is below 0.15 nM; in assay [4], 0.0265 nM. Further, the binding result in assay [18] and in assay [19] was “no binding (tested: 10 µg/mL)” in each case. In addition, the dissociation rate constant (koff) in [4] turned out to be 8.74e-06 s⁻¹. In assay [4], this molecule showed a kon of 329000 M⁻¹ s⁻¹. The EC50 was 2.03 nM in [5]; 2.15 nM in [6]; 2.31 nM in [7]; 3.57 nM in [8]; 2.37 nM in [9].
